IC50, pseudovirus neutralization and IC80, pseudovirus neutralization data for two molecules are collected here from patent US20240109955A1.

What all share (assay): cell-based or functional assay
The target of experiment [1] is SARS-CoV-2 Omicron variant BQ.1 spike protein (SARS-CoV-2).
Experiment [2] concerns the target SARS-CoV-2 Omicron variant BQ.1.1 spike protein (SARS-CoV-2).
The target in experiment [3] is SARS-CoV-2 Omicron variant XBB spike protein (SARS-CoV-2).

B1: A46 + B8 (protein)
VH 1: QVQLVESGGGVVQPGRSLRLSCAASGFTLSSYGMHWVRQAPGKGLEWVAVISYDGSNKYYVDSVKGRFTISRDNSKNTLYLQMNSLRAEDTAVYYCRWAYWELLPDYYYGMDVWGQGTTVTVSS
VL 1: QTVVTQEPSFSVSPGGTVTLTCGLSSGSVSTAYFPSWYQQTPGQAPRTLIYGTNTRSSGVPDRFSGSILGNKAALTITGAQADDESDYYCVLYMGRGIVVFGGGTKLTVL
VH 2: EVQLVESGGALIQPGGSLRLSCAASGIIVSANYMSWVRQAPGKGLEWVSVIYSGGSTFYADSVKGRFTISRDNSKNTLYLEMNSLRAEDTAVYYCARDAPILGVSDWGQGTLVTVSS
VL 2: EIVMTQSPAILSVSPGERATLSCRASQSVAINLAWYQQKPGQAPRLLIYAASSRATGIPGRFSGSGSETNFTLTISSLQSGDFAVYYCQQYITWPPSYTFGQGTKLEIK
Take B1: the IC50, pseudovirus neutralization in experiment [1] worked out at 0.0186 µg/mL; in experiment [2], 0.0145 µg/mL; in experiment [3], 0.0186 µg/mL. In addition, the IC80, pseudovirus neutralization in experiment [1] amounted to 0.0493 µg/mL; in experiment [2], 0.0273 µg/mL; in experiment [3] it was 0.0481 µg/mL.

B2: MX1027 (bispecific antibody)
chain 1: EIVMTQSPAILSVSPGERATLSCRASQSVAINLAWYQQKPGQAPRLLIYAASSRATGIPGRFSGSGSETNFTLTISSLQSGDFAVYYCQQYITWPPSYTFGQGTKLEIKGGSSGQTVVTQEPSFSVSPGGTVTLTCGLSSGSVSTAYFPSWYQQTPGQAPRTLIYGTNTRSSGVPDRFSGSILGNKAALTITGAQADDESDYYCVLYMGRGIVVFGGGTKLTVLGGGGSGGSGSGGGGSASGSGQVQLVESGGGVVQPGRSLRLSCAASGFTLSSYGMHWVRQAPGKGLEWVAVISYDGSNKYYVDSVKGRFTISRDNSKNTLYLQMNSLRAEDTAVYYCRWAYWELLPDYYYGMDVWGQGTTVTVSSGGSSGEVQLVESGGALIQPGGSLRLSCAASGIIVSANYMSWVRQAPGKGLEWVSVIYSGGSTFYADSVKGRFTISRDNSKNTLYLEMNSLRAEDTAVYYCARDAPILGVSDWGQGTLVTVSSASGGSGDKTHTCPPCPAPELLGGPSVFLFPPKPKDTLMISRTPEVTCVVVDVSHEDPEVKFNWYVDGVEVHNAKTKPREEQYNSYVVSVLTVLHQDWLNGKEYKCKVSNKALPAPIEKTISKAKGQPREPQVYTLPPCRDELTKNQVSLWCLVKGFYPSDIAVEWESNGQPENNYKTTPPVLDSDGSFFKKLTVDKSRWQQGNVFSCSVLHEALHSHYTQKSLSLSPG
chain 2: QTVVTQEPSFSVSPGGTVTLTCGLSSGSVSTAYFPSWYQQTPGQAPRTLIYGTNTRSSGVPDRFSGSILGNKAALTITGAQADDESDYYCVLYMGRGIVVFGGGTKLTVLGGSSGEIVMTQSPAILSVSPGERATLSCRASQSVAINLAWYQQKPGQAPRLLIYAASSRATGIPGRFSGSGSETNFTLTISSLQSGDFAVYYCQQYITWPPSYTFGQGTKLEIKGGGGSGGSGSGGGGSASGSGEVQLVESGGALIQPGGSLRLSCAASGIIVSANYMSWVRQAPGKGLEWVSVIYSGGSTFYADSVKGRFTISRDNSKNTLYLEMNSLRAEDTAVYYCARDAPILGVSDWGQGTLVTVSSGGSSGQVQLVESGGGVVQPGRSLRLSCAASGFTLSSYGMHWVRQAPGKGLEWVAVISYDGSNKYYVDSVKGRFTISRDNSKNTLYLQMNSLRAEDTAVYYCRWAYWELLPDYYYGMDVWGQGTTVTVSSASGGSGDKTHTCPPCPAPELLGGPSVFLFPPKPKDTLMISRTPEVTCVVVDVSHEDPEVKFNWYVDGVEVHNAKTKPREEQYNSYVVSVLTVLHQDWLNGKEYKCKVSNKALPAPIEKTISKAKGQPREPQVCTLPPSRDELTKNQVSLSCAVKGFYPSDIAVEWESNGQPENNYKTTPPVLDSDGSFFLVSKLTVDKSRWQQGNVFSCSVLHEALHSHYTQKSLSLSPG
For the molecule B2, the IC50, pseudovirus neutralization in experiment [1] came to 0.0216 µg/mL; in experiment [2], 0.0135 µg/mL; in experiment [3], 0.0129 µg/mL. Further, the values for the IC80, pseudovirus neutralization in experiment [1], in experiment [2] and in experiment [3] were 0.0649 µg/mL, 0.0232 µg/mL and 0.0207 µg/mL, respectively.
